Where “and” joins values, the source holds several entries; their conditions need not be identical. Equal entries are not always repeated. Where two headings read alike, the source gives them in different places.
Columns and labels:
[1] = biological target: T1, BCMA on MM1R cells (Homo sapiens, UniProt Q02223); experiment: In vitro cell binding capacity assay (free SEA-BCMA in patient serum); assay type: cell-based; conditions: for patients in whom high levels of free SEA-BCMA were maintained throughout the dosing period: Q2wk
T1 construct: endogenous in cells; host or cells: MM1R cells
T1 sequence (Q02223 1-184): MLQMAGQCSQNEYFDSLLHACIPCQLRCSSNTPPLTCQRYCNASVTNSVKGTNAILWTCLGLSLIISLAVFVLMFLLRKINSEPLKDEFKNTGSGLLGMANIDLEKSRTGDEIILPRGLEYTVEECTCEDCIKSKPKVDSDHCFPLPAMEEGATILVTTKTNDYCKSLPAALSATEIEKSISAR
Excerpt: An in vitro cell binding capacity assay was developed to complement serum concentration measurements of total SEA-BCMA, total soluble BCMA, and flow cytometric evaluation of free, unbound BCMA and total BCMA on plasma cells from the bone marrow. The assay measures the ability of free, unbound SEA-BCMA (e.g. not bound by sBCMA) from patient serum to bind and saturate BCMA in-vitro on a BCMA positive cell line. Titrations of known SEA-BCMA concentrations allow for an evaluation of the concentrations of free, unbound SEA-BCMA in patient serum. Together with a measurement of the percent-bound BCMA on the cell surface, this provides a direct indication of the ability of dosed SEA-BCMA to bind and saturate cell membrane-bound BCMA.
After incubation at room temperature for ½ hour, the cells were washed and stained with a saturating amount of SEA-BCMA conjugated to a fluorescent dye. After incubation at 4° C. in the dark for ½ hr, the cells were washed and fixed. Stained cells were analyzed on an Invitrogen Attune NxT flow cytometer. FlowJo V10 software was used to gate on viable cells and record the median fluorescent intensity (MFI). GraphPad Prism 8 was used for analysis.
The recorded MFI was normalized as follows. Normalization to 0% binding is the MFI from a control well incubated in healthy human serum with no SEA-BCMA present. Normalization to 100% binding is the MFI from a control well incubated in healthy human serum spiked with SEA-BCMA to a concentration 200 μg/mL. A titration of SEA-BCMA in healthy human serum may be used to generate a standard curve using the known amounts of SEA-BCMA.
The maintenance of free SEA-BCMA in the patient serum that are able to bind in vitro to the cell-surface BCMA of a BCMA-expressing cell line was investigated.

[2] = system: NF-κB p65; experiment: NF-κB p65 activity ELISA on nuclear extract; assay type: cell-based; conditions: NCI-H929, 20 μg/mL SEA-BCMA, 0.2 μM Nirogacestat
Experimental: The secondary mechanism of action of SEA-BCMA is to block BCMA proliferative cell signaling. Increased BCMA from GSI treatment is expected to induce increased BCMA signaling. Therefore, the block of this enhanced signaling by SEA-BCMA was tested. BCMA-expressing NCI-H929 cells were serum-starved with and without 0.2 μM Nirogacestat (purchased from SelleckChem) for 16 hrs. Cells were then bound with and without 20 μg/mL SEA-BCMA and incubated with and without 1 μg/ml recombinant human APRIL (R&D Systems) for 20 minutes at 37° C. in the presence or absence of 0.2 μM Nirogacestat. 1 μg of nuclear extract was assayed in duplicate for NF-κB p65 activity by ELISA (TransAM NFκB Chemi p65, Active Motif).

[3] = system: relapsed or refractory multiple myeloma (RRMM); experiment: Clinical antitumor activity (IMWG response, serum free light chain); assay type: in vivo, human
Experimental: Response assessment included SPEP/immunofixation, UPEP/immunofixation (in patients with a baseline urine M protein ≥200 mg/24 hour or for assessment of VGPR or better), SFLC, quantitative immunoglobulins, and plasmacytoma evaluation by imaging (at baseline, every 4 cycles, and at additional time points if clinically indicated). These samples were collected for local assessment. In addition, blood were analyzed in the central laboratory using a modified SPEP for patients with IgG myeloma.
The determination of antitumor activity were based on response assessments made according to the 2016 IMWG Criteria (Kumar et al., Lancet Oncol 17(8): e328-46, 2016) and treatment decisions by the investigator were based on these assessments. Clinical response of sCR, CR, VGPR, PR, SD, and PD were determined at each assessment based on local laboratory (and the modified SPEP run by the central laboratory for patients with IgG MM), radiological, and clinical evaluations. Progressive disease was based on IMWG 2016 criteria and/or clinical disease progression per investigator. All IMWG responses were confirmed responses. When applicable, determination of immunophenotypic CR, MRD status, and minimal response were made per the IMWG 2016 criteria.
Kappa and lambda free light chains were quantified in serum of patients as surrogate markers of antitumor activity.
A patient was determined to have an OR if, based on the 2016 IMWG uniform response criteria, they achieve a sCR, CR, VGPR, or a PR. The ORR is defined as the proportion of patients with an OR per investigator. Patients whose disease response could not be evaluated per the 2016 IMWG uniform response criteria were scored as Not Evaluable for calculating the ORR.

[4] = among 20 total patients treated
[5] = combination with dexamethasone, SEA-BCMA Day 1 and 15, dexamethasone Day 1, 8, 15, 22 of 28-day cycle
[6] = intensive dosing: 1600 mg q1wk for 8 doses, then once every two weeks

Substance: SEA-BCMA: non-fucosylated monoclonal anti-BCMA antibody having heavy chain SEQ ID NO: 13 and light chain SEQ ID NO: 15
- patients in whom high levels of free SEA-BCMA were maintained throughout the dosing period ([1]; 800 mg (or equivalent)): 6/8 and 6 out of 8
- patients in whom high levels of free SEA-BCMA were maintained throughout the dosing period ([1]; 1600 mg): 7/7 and all patients
- maintenance of >95% bound BCMA in vitro through the dosing interval ([1]; serum of patients dosed 100 mg-400 mg, two doses 14 days apart): not able to maintain >95% bound BCMA in vitro
- safety (1600 mg per dose once every 2 weeks): found to be safe
- safety profile (20 patients, 100-1600 mg): well-tolerated with no severe adverse effects
- adverse event (Patient A, 1600 mg every two weeks, second cycle): Grade 2 maculopapular rash
- dose-limiting toxicity (DLT) (Grade 3 infusion-related reactions) [4]: 1 case
- total serious infusion-related reactions [4]: 2
- safety [5]: found to be safe
- delayed-onset infusion-related reactions (IRRs) (dose escalation cohort): no instances of delayed-onset infusion-related reactions
- maximum tolerated dose (MTD) (human, in vivo): completed without exceeding MTD
- safety [6]: intensive dosing was safe
- safety and tolerability (patient, 200 mg escalated to 1600 mg every two weeks, cycles 1-10): tolerated the therapy well without any adverse effects related to SEA-BCMA
- block of Nirogacestat-increased NF-κB signaling [2]: partially blocked
- response by dose level ([3]; 1600 mg per dose once every 2 weeks vs 100-800 mg): highest overall confirmed response rate
- response assessment ([3]; Patient A, 1600 mg every two weeks, 7 prior lines): very good partial response (VGPR)
- time to which low level of sFLC was maintained ([3]; Patient A, 1600 mg every two weeks, after the first dose): ≥ 40 days
- response ([3]; all dose levels (100-1600 mg), after a minimum of 3 cycles of treatment): stable disease was observed
- patients with confirmed very good partial response (VGPR) ([3]; among 3 response evaluable patients, 1600 mg): 1 patient
- response [3, 5]: Confirmed responses were also observed
- response [3, 6]: Confirmed responses were also observed
- decrease of serum free light chain (sFLC) level ([3]; patient (Patient A), one week after first 1600 mg dose): about 90%
- response ([3]; patient, 200 mg escalated to 1600 mg, 8 prior lines): maintaining stable disease even 10 months after commencement of treatment

From patent publication US20230118517A1, “METHODS OF TREATING MULTIPLE MYELOMA” (Seagen Inc., priority 2020, published 2023)
